The test system of this data set is MS2 coat protein. In words: apparent KD of MS2 coat protein; designed switch direction (-1 OFF switch, 1 ON switch): -1; higher = weaker reporter binding. The procedure, abridged:
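For each design, the apparent KD is the median over clusters of curves fitted to normalised cluster fluorescence. Clusters held RNA switches with common flanks, transcribed on Illumina chips by stalled E. coli RNA polymerase. These were titrated with SNAP-549-labelled MS2 coat protein, doubling from 0.7 or 1.5 nM to 3 µM, without input, with 200 uM small-molecule ligand, or with an oligonucleotide input.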

The mark [1] stands for this setting: input ligand: microRNA oligo, concentration not stated.
[2] abbreviates: Eterna round: R95, input ligand: microRNA oligo, concentration not stated.
[3] abbreviates: Eterna round: R95, input ligand: FMN 200 uM.
Where [4] appears, read: Eterna round: R95, input ligand: none.

Turning to “UGAUCUAGCGGAGGAUAUACAUGAGGAUCACCCAUGUAUAGUCCAUGUGGUGACACGUGGAACAUGUAGAAGGCCGCUAGAUCU [JL ENG2 3.83] (Eterna round: R96, puzzle: Exclusion NG 2)”, the “apparent KD of MS2 coat protein” value worked out at 228 nM (input ligand: FMN 200 uM), 24.8 nM under setting [1] and 23.1 nM (input ligand: none).
“UCCAUCCCUGUGAGGAUAUCGUCCGUUUUUUGUUCCGAGAAGGCACAUGAGGAUCACCCAUGUUUUUUGUUUUU [JR_BMOE4_Sub077] (puzzle: Brourd's mod of Exclusion 4)”: the “apparent KD of MS2 coat protein” value under setting [2] was 30.2 nM.
For “GAAAAGGUAGGAUAUACGAAAAGAAAGGGUAGAAAAAAAACACAUGAGGAUCACCCAUGUAGAAGGACCAAAAG [salish99_ex2_r3_027] (puzzle: Exclusion 2)”, the “apparent KD of MS2 coat protein” value is 58.7 nM under setting [3], 26.9 nM under setting [2] and 25 nM under setting [4].
Regarding “GUCCUGUGGCAGGAUAUGAAAACGUAGCAACGGUCAGAAGGGCCAACAUGAGGAUCACCCAUGUACCCGUAUGG [Eternabot (L1) Solution 62] (Eterna round: R97, puzzle: Exclusion 6)”, the “apparent KD of MS2 coat protein” value is 24.3 nM (input ligand: FMN 200 uM) and 19.9 nM (input ligand: none).
Turning to “AAUAACAGAGGAUAUACUGUUUUAUGUGUUUGUUGUUUUGAACAUGAGGAUCACCCAUGUAGAAGGCUGAUUGA [JMF 79] (puzzle: Exclusion 2)”, the “apparent KD of MS2 coat protein” value under setting [2] is 38.7 nM.
For “UAACUUUUUGUAAGGAUAUCGGUCCCAAGGGACAACGAGAAGGUACAUGAGGAUCACCCAUGUGAAAUAAGAAU [Mod of Zala 20 - Jieux - Brourd's Mod of Exclusion 4] (Eterna round: R97, puzzle: Brourd's mod of Exclusion 4)”, the “apparent KD of MS2 coat protein” value is, setting by setting: (input ligand: FMN 200 uM) 154 nM; (input ligand: none) 22.7 nM.
Take “UUUGUCUGUGUGAGGAUAUACUUGUUUGGGUUUUUGUAGAAGGCACAUGAGGAUCACCCAUGUAUUUUGUCGUG [JR_BME4_Sub018] (Eterna round: R96, puzzle: Brourd's mod of Exclusion 4)”: the “apparent KD of MS2 coat protein” value is 77.7 nM (input ligand: FMN 200 uM), 34.1 nM under setting [1] and 41.9 nM (input ligand: none).
With “AGGAUACAUGAGGAUCACCCAUGUGAGGAUAUACGAUAGCUCAGGAAGAGAUUAGUAUGUAGAAGGUGCGGGUG [Eternabot (L1) Solution 49] (Eterna round: R97, puzzle: Exclusion 1)”, the “apparent KD of MS2 coat protein” value was 205 nM (input ligand: FMN 200 uM) and 198 nM (input ligand: none).
On the same counts, the results for “ACAUGUACAGAGGAUAUGCGCCUUGGCAAUGGUGUAGAAGGCUGAACAUGAGGAUCACCCAUGUGCAAUCCAAC [EX6 A.5] (Eterna round: R97, puzzle: Exclusion 6)” are 378 nM and 55.4 nM.
For the sequence “UAUUAACAAGCAAGAUCCUACAUGAGGAUCACCCAUGUGCUCGUCUUAUAAGGUACUGUGACGAAAGUCACGGUACC [Sensor 3, v1 - 70] (puzzle: Sensor v3, turn-off variant 1)”, the “apparent KD of MS2 coat protein” value runs as follows: under setting [3], 294 nM; under setting [2], 42.9 nM; under setting [4], 251 nM.
The corresponding values for “AAGAAACAUGAGGAUCACCCAUGUGAGGAUAUGAUGAAGAAAAGAAAAGAAAGAAGACUCAGAAGGCACAAAGG [salish99-ex1_r3_070] (puzzle: Exclusion 1)” are 77.1 nM, 45.3 nM and 47.4 nM.
On the same counts, the results for “AUGAGGGUAAGAAGGUGAAGAUAGAGCGUACCUUAUGGAACAUGAGGAUCACCCAUGUAGCUUUUUGCUCGUCUUAU [JR_SV3TOV2_Sub032] (puzzle: Sensor v3, turn-off variant 2)” are 36.1 nM, 84 nM and 35.6 nM.
As to “GUUGUUUAUGUAGGAUAUGCCUGGCGUGCCUAAGCAGAAGGACAUGAGGAUCACCCAUGUAUUGCGGUCUGCGUUCAGAUCGCU [salish99_ExNG1_r4_019] (Eterna round: R96, puzzle: Exclusion NG 1)”, the “apparent KD of MS2 coat protein” value is, setting by setting: (input ligand: FMN 200 uM) 36.8 nM; under setting [1], 17.2 nM; (input ligand: none) 23.8 nM.
As to “AGAGAAUAGACAGGAUAUGAGAAUAGAUAGAGCUCAGAAGGGUCACAUGAGGAUCACCCAUGUGAAGUCUUGAGGCUGCGUGGA [Prohibition 19 - Jieux - Exclusion NG 1] (Eterna round: R96, puzzle: Exclusion NG 1)”, the “apparent KD of MS2 coat protein” value (input ligand: FMN 200 uM) turned out to be 14.6 nM, the “apparent KD of MS2 coat protein” value under setting [1] turned out to be 10.9 nM and the “apparent KD of MS2 coat protein” value (input ligand: none) is 18.3 nM.
Turning to “ACUUGCGAUAUGCUCGUCUUAUUUUUGUUGACGUUCUAUACAUGAGGAUCACCCAUGUUUUGUUCCUUGUGCUGGUA [JR_SV3TOV2_Sub072] (puzzle: Sensor v3, turn-off variant 2)”, the “apparent KD of MS2 coat protein” value reads like this: under setting [3], 161 nM; under setting [2], 170 nM; under setting [4], 184 nM.
“AAGUCACAGGGAGGAUAUGUGAAAGGAAGUGUAACAGAAGGCCCAACGUAGGGCGAGACAUGAGGAUCACCCAUGUAUAAAAGA [PowerStrip EXNG 1.16] (Eterna round: R96, puzzle: Exclusion NG 1)”: the “apparent KD of MS2 coat protein” value (input ligand: FMN 200 uM) was found to be 28.9 nM, the “apparent KD of MS2 coat protein” value under setting [1] worked out at 20.8 nM and the “apparent KD of MS2 coat protein” value (input ligand: none) came to 25.9 nM.
For the sequence “UAACUAACUCCUCGGAGCAACAUGAGGAUCACCCAUGUUAUGAACAUUCGGUGUAACAGGAUGUUUGCUCGUCUGGA [Eternabot (Original) Solution 22] (Eterna round: R97, puzzle: Sensor, turn-off variant 1)”, the “apparent KD of MS2 coat protein” value is 266 nM (input ligand: FMN 200 uM) and 259 nM (input ligand: none).
In the case of “AAUAACAGAGGAUAUACUAUUUUAUGUAUUUAUUAUUUUAAACAUGAGGAUCACCCAUGUAGAAGGCUGAGUAA [JMF 27] (puzzle: Exclusion 2)”, the “apparent KD of MS2 coat protein” value under setting [2] was 22.2 nM.
Turning to “GCUUGUGGGCAAGGAUAUCCUACGUUGUUCUGGUUCGUGUCUGUCACAUGAGGAUCACCCAUGUGGGAGAAGGUGCCUUUGGUG [Design 62] (Eterna round: R96, puzzle: Exclusion NG 2)”, the “apparent KD of MS2 coat protein” value (input ligand: FMN 200 uM) was determined as 23.2 nM, the “apparent KD of MS2 coat protein” value under setting [1] turned out to be 9.2 nM and the “apparent KD of MS2 coat protein” value (input ligand: none) was 15.6 nM.
Take “CGCUAGUCAGGAUAUACGAACAUGUCAAAAGACGUGAAGGGACAUGAGGAUCACCCAUGUAGAAGGGACUAGCA [salish99_ex2_r3_014] (Eterna round: R96, puzzle: Exclusion 2)”: the “apparent KD of MS2 coat protein” value (input ligand: FMN 200 uM) was found to be 165 nM, the “apparent KD of MS2 coat protein” value under setting [1] amounted to 22.2 nM and the “apparent KD of MS2 coat protein” value (input ligand: none) worked out at 31.5 nM.
Turning to “GGGAACCGAGGAUAUCAGUACACGCACAUGAGGAUCACCCAUGUGCUCCUCGGUGCUGUCUGAGAAGGCGGUGAGA [Raonxe] (Eterna round: R97, puzzle: Exclusion 5)”, the “apparent KD of MS2 coat protein” value stood at 26.9 nM (input ligand: FMN 200 uM) and 17.6 nM (input ligand: none).
As to “UUUAAUUUUUUUUUUUUACAAGCUUUUUGCUCGUCUUAUACAUGAGGAUCACCCAUGUGAAUGGGAGGUAAAUUAUC [JMF 73] (puzzle: Sensor v3, turn-off variant 2)”, the “apparent KD of MS2 coat protein” value was 175 nM under setting [3], 192 nM under setting [2] and 116 nM under setting [4].
The corresponding values for “AAAUAAUAGAUAAAAUAAUACAUGAGGAUCACCCAUGUGCGAUGUUGAGGGUGAUACAGGCUUUUUGCUCGUCUUAU (puzzle: Sensor v3, turn-off variant 1)” are 177 nM, 20.5 nM and 67.9 nM.
In the case of “UUAUUAAUUAAGACUGCAAGAUCACAUGAGGAUCACCCAUGUCAGGAUAUCAGCUCGUGUAGAGCUGAGAAGGGACAAGCAGUC [ExNG3/15-A3] (Eterna round: R96, puzzle: Exclusion NG 3)”, the “apparent KD of MS2 coat protein” value (input ligand: FMN 200 uM) was 314 nM, the “apparent KD of MS2 coat protein” value under setting [1] worked out at 97.5 nM and the “apparent KD of MS2 coat protein” value (input ligand: none) stood at 123 nM.
Turning to “AUUGUAGUUGUGAGGAUAUCGUAGAUUUAUUGAAACGAGAAGGCACAUGAGGAUCACCCAUGUAAGUUGUAGGU [JR_BMOE4_Sub054] (puzzle: Brourd's mod of Exclusion 4)”, under setting [2], the “apparent KD of MS2 coat protein” value worked out at 54 nM.
As for “AUAAAUCAUGUAGGAUAUGCGUGGAGAAACUAUGCAGAAGGACAUGAGGAUCACCCAUGUGCUUCCGUCUGCGUACAGAUGGUA [Mat - Exclusion NG 1 - Mod of JL - D9] (Eterna round: R96, puzzle: Exclusion NG 1)”, the “apparent KD of MS2 coat protein” value (input ligand: FMN 200 uM) came out at 134 nM, the “apparent KD of MS2 coat protein” value under setting [1] came to 20.1 nM and the “apparent KD of MS2 coat protein” value (input ligand: none) was 27.3 nM.
For the sequence “CUUUUGUGAGGAUAUUAGUAGUAAAUAAAUAAAAUUACUACUGAGAAGGCACAUGAGGAUCACCCAUGUUCCUU [salish99_ex4_r3_067] (puzzle: Exclusion 4)”, the “apparent KD of MS2 coat protein” value under setting [2] worked out at 14 nM.
On to “GAAAAGGUAGGAUAUACGAAAAAAAAGGGCAGAAAAAAAACACAUGAGGAUCACCCAUGUAGAAGGACCAAAAG [salish99_ex2_r3_065] (puzzle: Exclusion 2)”, for which the “apparent KD of MS2 coat protein” value reads like this: under setting [3], 26.6 nM; under setting [2], 24.3 nM; under setting [4], 23.2 nM.
On to “UUAUUGGUUGUGAGGAUAUCGGAUAGAUAGAUAUUCGAGAAGGCACAUGAGGAUCACCCAUGUGUGAUUAGAAA [JR_BMEx4_Sub048] (Eterna round: R97, puzzle: Brourd's mod of Exclusion 4)”, for which the “apparent KD of MS2 coat protein” value runs as follows: (input ligand: FMN 200 uM) 193 nM; (input ligand: none) 25.9 nM.
For “AGAAAUGCCCAUGGCCACAAGCUUUUUGCUUAUCUUACCACAUGAGGAUCACCCAUGUGACAUGGGCUCCUGAUAAU [Teedor] (puzzle: Sensor v3, turn-off variant 2)”, the “apparent KD of MS2 coat protein” value was 18.5 nM under setting [3], 19.4 nM under setting [2] and 17.1 nM under setting [4].

The values above are taken from the supplement of paper PMC9170038.
